Results on one protein are retold here after PMC4840175, “A Substrate Mimic Allows High-Throughput Assay of the FabA Protein and Consequently the Identification of a Novel Inhibitor of Pseudomonas aeruginosa FabA” (Journal of Molecular Biology, 2016).

Substrate in the data set: CCCCCCCC(O)CC(=O)SCCNC(C)=O
Kind of data set: enzyme turnover, coupled PaFabA-PaFabV fluorescence assay (estimated KM) and direct UV assay. The data set is classed as biochemical, Pseudomonas aeruginosa.

B1: PaFabA (3-hydroxyacyl-[ACP] dehydratase) (Pseudomonas aeruginosa PAO1) (protein)
chain: MTKQHAFTREDLLRCSRGELFGPGNAQLPAPNMLMIDRIVHISDVGGKYGKGELVAELDINPDLWFFACHFEGDPVMPGCLGLDAMWQLVGFYLGWQGNPGRGRALGSGEVKFFGQVLPTAKKVTYNIHIKRTINRSLVLAIADGTVSVDGREIYSAEGLRVGLFTSTDSF
B1: the Km was 400 µM.
